# Experimental data taken from the supplement of paper PMC11246515.
# ± gives the standard deviation of the averaged measurements.
# Experiment: total protein half-life in vivo (active degradation + dilution); higher = more stable protein
# [1] = E. coli NCM3722 delta-clpP delta-lon delta-hslV, growth: N-lim chemostat, doubling time 6 h
# [2] = E. coli NCM3722 delta-clpP, growth: N-lim chemostat, doubling time 6 h
# [3] = E. coli NCM3722 delta-hslV, growth: N-lim chemostat, doubling time 6 h
# [4] = E. coli NCM3722 delta-smpB, growth: N-lim chemostat, doubling time 6 h
# [5] = wild type E. coli NCM3722, growth: C-lim chemostat, doubling time 3 h
# [6] = wild type E. coli NCM3722, growth: C-lim chemostat, doubling time 6 h
# [7] = wild type E. coli NCM3722, growth: N-lim chemostat, doubling time 6 h
# [8] = wild type E. coli NCM3722, growth: N-lim chemostat, doubling time 12 h
# [9] = wild type E. coli NCM3722, growth: P-lim chemostat, doubling time 6 h
# [10] = wild type E. coli NCM3722, growth: P-lim chemostat, doubling time 12 h
# [11] = E. coli NCM3722 delta-lon, growth: N-lim chemostat, doubling time 6 h
# [12] = wild type E. coli NCM3722, growth: C-lim chemostat, doubling time 12 h
Sequence,total protein half-life in vivo [1],total protein half-life in vivo [2],total protein half-life in vivo [3],total protein half-life in vivo [4],total protein half-life in vivo [5],total protein half-life in vivo [6],total protein half-life in vivo [7],total protein half-life in vivo [8],total protein half-life in vivo [9],total protein half-life in vivo [10],total protein half-life in vivo [11],total protein half-life in vivo [12]
MNNPAMTIKGEQAKKQLIAAALAQFGEYGMNATTREIAAQAGQNIAAITYYFGSKEDLYLACAQWIADFIGEQFRPHAEEAERLFAQPQPDRAAIRELILRACRNMIKLLTQDDTVNLSKFISREQLSPTAAYHLVHEQVISPLHSHLTRLIAAWTGCDANDTRMILHTHALIGEILAFRLGKETILLRTGWTAFDEEKTELINQTVTCHIDLILQGLSQRSL [P0ACU0],5.84 ± 0.3 h,5.34 ± 0.68 h,4.74 ± 0.24 h,4.47 ± 0.15 h,2.49 ± 0.42 h,5.25 ± 0.066 h,4.76 ± 0.33 h,7.67 ± 0.31 h,4.47 ± 0.36 h,10.4 ± 0.78 h,,
MNNREKEILAILRRNPLIQQNEIADMLQISRSRVAAHIMDLMRKGRIKGKGYILTEQEYCVVVGTINMDIRGMADIRYPQSASHPGTIHCSAGGVGRNIAHNLALLGRDVHLLSVIGDDFYGEMLLEETRRAGVNVSGCVRLHGQSTSTYLAIANRDDQTVLAINDTHLLEQLTPQLLNGSRDLLRHAGVVLADCNLTAEALEWVFTLADEIPVFVDTVSEFKAGKIKHWLAHIHTLKPTLPELEILWGQAITSDADRNTAVNALHQQGVQQLFVYLPDESVYCSEKDGEQFLLTAPAHTTVDSFGADDGFMAGLVYSFLEGYSFRDSARFAVACAAISRASGSLNNPTLSADNALSLVPMV,5.83 ± 0.3 h,,,,,,,,,,,
MNNSEGLKSFQQSLADLPQWVSERLLQQINQLTNYEPVIGIMGKTGVGKSSLCNALFAGDISPVSDVAACTREPLRFRLQVGDRYITLMDLPGVGESGARDTEYAALYREQLPRLDLVLWLIKADDRALTVDEHFYHQVIGEVYRHKVLFVISQSDKAEPTSGGGQLSTAQKQNISRKICLLHELFQPVHPVCAVSVRLQWGLKVMAERMIKCLPREATSPVVSQLHPSFRTTVVREQARSDFGETVGAVLDSISAFPLIPAPVRAVIQAVRTTVVSVARAVWDFFF,,,,3.51 h,,,,,,6.63 h,,
MNPAVDNEFQQWLSQINQVCGNFTGRLLTERYTGVLDTHFAKGLKLSTVTTSGVNLSRTWQEVKGSDDAWFYTVFQLSGQAIMEQDERQVQIGAGDITLLDASRPCSLYWQESSKQISLLLPRTLLEQYFPHQKPICAERLDADLPMVQLSHRLLQESMNNPALSETESEAALQAMVCLLRPVLHQRESVQPRRERQFQKVVTLIDDNIREEILRPEWIAGETGMSVRSLYRMFADKGLVVAQYIRNRRLDFCADAIRHAADDEKLAGIGFHWGFSDQSHFSTVFKQRFGMTPGEYRRKFR,6.1 ± 0.083 h,,,,0.364 ± 0.09 h,0.661 ± 0.089 h,,,,,1.98 h,0.65 h
MNPLKAGDIAPKFSLPDQDGEQVNLTDFQGQRVLVYFYPKAMTPGCTVQACGLRDNMDELKKAGVDVLGISTDKPEKLSRFAEKELLNFTLLSDEDHQVCEQFGVWGEKSFMGKTYDGIHRISFLIDADGKIEHVFDDFKTSNHHDVVLNWLKEHA [P0AE52],5.42 ± 0.21 h,5.26 ± 0.76 h,4.92 ± 0.074 h,4.25 ± 0.079 h,2.85 ± 0.64 h,5.36 ± 0.065 h,4.08 ± 0.36 h,7.49 ± 0.41 h,4.38 ± 0.081 h,11 ± 0.55 h,6.45 ± 1.5 h,7.64 ± 0.72 h
MNPTRYARICEMLARRQPDLTVCMEQVHKPHNVSAIIRTADAVGVHEVHAVWPGSRMRTMASAAAGSNSWVQVKTHRTIGDAVAHLKGQGMQILATHLSDNAVDFREIDYTRPTCILMGQEKTGITQEALALADQDIIIPMIGMVQSLNVSVASALILYEAQRQRQNAGMYLRENSMLPEAEQQRLLFEGGYPVLAKVAKRKGLPYPHVNQQGEIEADADWWATMQAAG [P0AGJ2],,5.55 h,5.14 ± 0.28 h,4.84 ± 0.18 h,2.85 ± 0.62 h,5.7 ± 0.66 h,5.5 ± 0.66 h,10 ± 0.54 h,5.8 ± 0.23 h,12.5 ± 0.089 h,5.86 h,10.7 ± 1.5 h
MNQIDRLLTIMQRLRDPENGCPWDKEQTFATIAPYTLEETYEVLDAIAREDFDDLRGELGDLLFQVVFYAQMAQEEGRFDFNDICAAISDKLERRHPHVFADSSAENSSEVLARWEQIKTEERAQKAQHSALDDIPRSLPALMRAQKIQKRCANVGFDWTTLGPVVDKVYEEIDEVMYEARQAVVDQAKLEEEMGDLLFATVNLARHLGTKAEIALQKANEKFERRFREVERIVAARGLEMTGVDLETMEEVWQQVKRQEIDL [P0AEY3],4.85 ± 0.48 h,4.1 ± 0.46 h,2.49 ± 0.062 h,2.49 ± 0.12 h,2.51 ± 0.056 h,5.06 ± 0.058 h,2.624 ± 0.016 h,3.29 ± 0.12 h,3.61 ± 0.13 h,6.14 ± 1.5 h,3.25 ± 0.4 h,6.42 ± 0.2 h
MNRFSKTQIYLHWITLLFVAITYAAMELRGWFPKGSSTYLLMRETHYNAGIFVWVLMFSRLIIKHRYSDPSIVPPPPAWQMKAASLMHIMLYITFLALPLLGIALMAYSGKSWSFLGFNVSPFVTPNSEIKALIKNIHETWANIGYFLIAAHAGAALFHHYIQKDNTLLRMMPRRK,,,,5.19 h,3.2 h,,,,,> 16 h,,
MNRRRKLLIPLLFCGAMLTACDDKSAENAAAMTPEVGVVTLSPGSVNVLSELPGRTVPYEVAEIRPQVGGIIIKRNFIEGDKVNQGDSLYQIDPAPLQAELNSAKGSLAKALSTASNARITFNRQASLLKTNYVSRQDYDTARTQLNEAEANVTVAKAAVEQATINLQYANVTSPITGVSGKSSVTVGALVTANQADSLVTVQRLDPIYVDLTQSVQDFLRMKEEVASGQIKQVQGSTPVQLNLENGKRYSQTGTLKFSDPTVDETTGSVTLRAIFPNPNGDLLPGMYVTALVDEGSRQNVLLVPQEGVTHNAQGKATALILDKDDVVQLREIEASKAIGDQWVVTSGLQAGDRVIVSGLQRIRPGIKARAISSSQENASTESKQ,5.76 ± 0.3 h,6.22 ± 0.68 h,6.15 ± 0.1 h,5.05 ± 0.34 h,2.98 h,6.09 h,5.92 ± 0.32 h,10.6 ± 0.88 h,3.99 ± 0.38 h,8.12 ± 0.25 h,6.24 ± 0.35 h,> 16 h
